Drawing on the Human Domainome abundance scans (Beltran et al. 2025), this text covers abundance fitness for 51 variants.

± gives the uncertainty stated by the source.

B1: Max-interacting protein 1, residues 70 to 120; numbered along this chain, P50539 (parent)
chain: STHNELEKNRRAHLRLCLERLKVLIPLGPDCTRHTTLGLLNKAKAHIKKLE

The data set covers variants of B1. The data set is described as follows: abundance fitness (aPCA) (normalised: wild type 0, dead -1); higher = more abundant; growth selection in yeast, the domain comes from the species named. The conditions noted are these: Homo sapiens.
In the case of STHNELEKNRRAHLRLCLERLKVLIPLGPDCTRHTTLLLLNKAKAHIKKLE, the abundance fitness is -0.326 ± 0.1.
As for STHNELEKNRRAHLRLCLERLKVLIPLGPDCTRHTTLMLLNKAKAHIKKLE, the abundance fitness was 0.118 ± 0.12.
The same measure for STHNELEKNRRAHLRLCLERLKVLIPLGPDCTRHTTLKLLNKAKAHIKKLE: 0.081 ± 0.14.
In the case of STHNELEKNRRAHLRLCLERLKVLIPLGPDCTRHTTLYLLNKAKAHIKKLE, the abundance fitness is -0.546 ± 0.18.
The same measure for STHNELEKNRRAHLRLCLERLKVLIPLGPDCTRHTTLFLLNKAKAHIKKLE: -0.584 ± 0.12; for STHNELEKNRRAHLRLCLERLKVLIPLGPDCTRHTTLVLLNKAKAHIKKLE: -0.242 ± 0.083; for STHNELEKNRRAHLRLCLERLKVLIPLGPDCTRHTTLELLNKAKAHIKKLE: -0.185 ± 0.1.
The same measure for STHNELEKNRRAHLRLCLERLKVLIPLGPDCTRHTTLRLLNKAKAHIKKLE: -0.009 ± 0.078; for STHNELEKNRRAHLRLCLERLKVLIPLGPDCTRHTTLILLNKAKAHIKKLE: -0.486 ± 0.22; for STHNELEKNRRAHLRLCLERLKVLIPLGPDCTRHTTLWLLNKAKAHIKKLE: -0.265 ± 0.092.
Take STHNELEKNRRAHLRLCLERLKVLIPLGPDCTRHTTLGLLNKEKAHIKKLE: the abundance fitness is -0.58 ± 0.13.
STHNELEKNRRAHLRLCLERLKVLIPLGPDCTRHTTLGLLNKDKAHIKKLE: the abundance fitness was -0.634 ± 0.17.
With STHNELEKNRRAHLRLCLERLKVLIPLGPDCTRHTTLGLLNKFKAHIKKLE, the abundance fitness was -0.182 ± 0.12.
Turning to STHNELEKNRRAHLRLCLERLKVLIPLGPDCTRHTTLGLLNKHKAHIKKLE, the abundance fitness is -0.828 ± 0.17.
Turning to STHNELEKNRRAHLRLCLERLKVLIPLGPDCTRHTTLGLLNKIKAHIKKLE, the abundance fitness was -0.2 ± 0.14.
For the variant STHNELEKNRRAHLRLCLERLKVLIPLGPDCTRHTTLGLLNKCKAHIKKLE, the abundance fitness was -0.133 ± 0.1.
The same measure for STHNELEKNRRAHLRLCLERLKVLIPLGPDCTRHTTLGLLNKGKAHIKKLE: -0.583 ± 0.085; for STHNELEKNRRAHLRLCLERLKVLIPLGPDCTRHTTLGLLNKKKAHIKKLE: -0.939 ± 0.22.
The same measure for STHNELEKNRRAHLRLCLERLKVLIPLGPDCTRHTTLGRLNKAKAHIKKLE: -0.879 ± 0.1; for STHNELEKNRRAHLRLCLERLKVLIPLGPDCTRHTTLGCLNKAKAHIKKLE: -0.588 ± 0.13.
STHNELEKNRRAHLRLCLERLKVLIPLGPDCTRHTTLGHLNKAKAHIKKLE: the abundance fitness was -1.15 ± 0.36.
As to STHNELEKNRRAHLRLCLERLKVLIPLGPDCTRHTTLGILNKAKAHIKKLE, the abundance fitness is -0.07 ± 0.13.
Consider STHNELEKNRRAHLRLCLERLKVLIPLGPDCTRHTTLGELNKAKAHIKKLE, for which the abundance fitness is -0.597 ± 0.13.
The same measure for STHNELEKNRRAHLRLCLERLKVLIPLGPDCTRHTTLGSLNKAKAHIKKLE: -0.707 ± 0.11.
The same measure for STHNELEKNRRAHLRLCLERLKVLIPLGPDCTRHTTLGQLNKAKAHIKKLE: -0.894 ± 0.18; for STHNELEKNRRAHLRLCLERLKVLIPLGPDCTRHTTLGKLNKAKAHIKKLE: -0.881 ± 0.16; for STHNELEKNRRAHLRLCLERLKVLIPLGPDCTRHTTLGWLNKAKAHIKKLE: 0.127 ± 0.096.
The same measure for STHNELEKNRRAHLRLCLERLKVLIPLGPDCTRHTTLGVLNKAKAHIKKLE: -0.257 ± 0.09; for STHNELEKNRRAHLRLCLERLKVLIPLGPDCTRHTTLGPLNKAKAHIKKLE: -0.597 ± 0.15.
On to STHNELEKNRRAHLRLCLERLKVLIPLGPDCTRHTTLGMLNKAKAHIKKLE, for which the abundance fitness was -0.194 ± 0.11.
Turning to STHNELEKNRRAHLRLCLERLKVLIPLGPDCTRHTTLGNLNKAKAHIKKLE, the abundance fitness was -1 ± 0.17.
The same measure for STHNELEKNRRAHLRLCLERLKVLIPLGPDCTRHTTLGDLNKAKAHIKKLE: -1.11 ± 0.23; for STHNELEKNRRAHLRLCLERLKVLIPLGPDCTRHTTLGALNKAKAHIKKLE: -0.704 ± 0.15; for STHNELEKNRRAHLRLCLERLKVLIPLGPDCTRHTTLGTLNKAKAHIKKLE: -0.535 ± 0.16.
Regarding STHNELEKNRRAHLRLCLERLKVLIPLGPDCTRHTTLGYLNKAKAHIKKLE, the abundance fitness is -0.555 ± 0.16.
For STHNELEKNRRAHLRLCLERLKVLIPLGPDCTRHTTLGLLMKAKAHIKKLE, the abundance fitness is -0.559 ± 0.27.
Turning to STHNELEKNRRAHLRLCLERLKVLIPLGPDCTRHTTLGLLEKAKAHIKKLE, the abundance fitness is -0.139 ± 0.27.
On to STHNELEKNRRAHLRLCLERLKVLIPLGPDCTRHTTLGLLAKAKAHIKKLE, for which the abundance fitness was -0.218 ± 0.2.
Regarding STHNELEKNRRAHLRLCLERLKVLIPLGPDCTRHTTLGLLPKAKAHIKKLE, the abundance fitness is -0.44 ± 0.18.
The same measure for STHNELEKNRRAHLRLCLERLKVLIPLGPDCTRHTTLGLLSKAKAHIKKLE: -0.09 ± 0.14.
For STHNELEKNRRAHLRLCLERLKVLIPLGPDCTRHTTLGLLCKAKAHIKKLE, the abundance fitness was -0.237 ± 0.17.
For the variant STHNELEKNRRAHLRLCLERLKVLIPLGPDCTRHTTLGLLFKAKAHIKKLE, the abundance fitness was -0.7 ± 0.3.
The same measure for STHNELEKNRRAHLRLCLERLKVLIPLGPDCTRHTTLGLLYKAKAHIKKLE: -0.745 ± 0.34; for STHNELEKNRRAHLRLCLERLKVLIPLGPDCTRHTTLGLLWKAKAHIKKLE: -0.83 ± 0.2.
With STHNELEKNRRAHLRLCLERLKVLIPLGPDCTRHTTLGLLIKAKAHIKKLE, the abundance fitness was -0.631 ± 0.33.
As for STHNELEKNRRAHLRLCLERLKVLIPLGPDCTRHTTLGLLLKAKAHIKKLE, the abundance fitness was -0.711 ± 0.18.
STHNELEKNRRAHLRLCLERLKVLIPLGPDCTRHTTLGLLDKAKAHIKKLE: the abundance fitness was -0.322 ± 0.17.
For STHNELEKNRRAHLRLCLERLKVLIPLGPDCTRHTTLGLLKKAKAHIKKLE, the abundance fitness came to 0.109 ± 0.33.
The same measure for STHNELEKNRRAHLRLCLERLKVLIPLGPDCTRHTTLGLLRKAKAHIKKLE: -0.044 ± 0.1; for STHNELEKNRRAHLRLCLERLKVLIPLGPDCTRHTTLGLLVKAKAHIKKLE: -0.707 ± 0.17.
Turning to STHNELEKNRRAHLRLCLERLKVLIPLGPDCTRHTTLGLLTKAKAHIKKLE, the abundance fitness was -0.555 ± 0.2.
